US20170312350A1 (IMMATICS BIOTECHNOLOGIES, published 2017)

Molecular target: MHC/IGF2BP3-001 complex on IGF2BP3-001-loaded target cells (human)
Test: cell-based or functional assay

B1: TCR R10P1A7 (TCR, V domains shown)
V domain 1: GEDVEQSLFLSVREGDSSVINCTYTDSSSTYLYWYKQEPGAGLQLLTYIFSNMDMKQDQRLTVLLNKKDKHLSLRIADTQTGDSAIYFCAESKETRLMFGDGTQLVVKP
V domain 2: GAVVSQHPSWVICKSGTSVKIECRSLDFQATTMFWYRQFPKQSLMLMATSNEGSKATYEQGVEKDKFLINHASLTLSTLTVTSAHPEDSSFYICSARAGGHEQFFGPGTRLTVLE
**Q.** How did the “EC50 (target peptide titration, IFNγ release)” value turn out when B1 was run?
**A.** The value was ~1 nM.
